# Experimental data: publication PMC2834481
# Biological target: squid Munc18-1 (squid)
# Assay: ITC
row,Substance,Kd
1,synaptobrevin(49-96) (from UniProt P63045 49-96) (domain or fragment),13.3 µM
2,synaptobrevin(77-96) peptide (from UniProt P63045 77-96),13.5 µM
